In data set [1] the target is Bacillus brevis ATCC8185 NRPS peptidyl carrier protein involved in tyrocidine biosynthesis (TycPCP) (Bacillus brevis ATCC8185).
The target of data set [2] is truncated SACP, SACP3 (Synechocystis sp. PCC6803) (UniProt P20804).
Substrate in data set [3]: CC(C)(COP(=O)(O)OP(=O)(O)OC[C@H]1O[C@@H](n2cnc3c(N)ncnc32)[C@H](O)[C@@H]1OP(=O)(O)O)[C@@H](O)C(=O)NCCC(=O)NCCS
In words: Phosphopantetheinylation assay with HPLC analysis: kinetics of Sppt with respect to CoA, carrier protein SACP3 (truncated SACP). The note with it: other: Michaelis-Menten fit, 37° C. Type of data set: biochemical, Synechocystis sp. PCC6803. An excerpt:
Sppt and SACP were expressed and purified to determine the activity of Sppt via phosphopantetheinylation assays. Sppt was amplified by the primer pair SynPpF (5′-TGTTTAAACTCACCTG-3′) (SEQ ID NO: 9) and SynPpR (5′-CCCAAGGTTACGAAAC-3′) (SEQ ID NO: 10). The resulting PCR product was cloned into pGEM-T (Promega), digested with the restriction enzymes SacI and EcoRV and ligated into pET30 (Novagen, San Diego, Calif.). The Synechocystis sp. PCC6803 fatty acid synthesis (FAS) ACP, designated SACP (AcpP BA000022), was amplified by the primer pair ssl2084Efw (5′-[…]-3′) (SEQ ID NO: 11) and ssl12084 Hry (5′-[…]-3′) (SEQ ID NO: 12), digested with the restriction enzymes EcoRI and HindIII, and cloned into pET30. A truncated SACP, SACP3, was cloned and expressed for HPLC kinetic analysis using the primers 2084NdeF (5′-[…]-3′) (SEQ ID NO: 13) and 2083XhoR (5′-[…]-3′) (SEQ ID NO: 14).
The constructs were transformed into BL21(DE3) Rosetta (Novagen) for expression. Sppt was expressed at 37° C., with an induction concentration of 1 mM isopropyl-beta-D-thiogalactopyranoside (IPTG), for 3 hours. SACP and SACP3 were expressed at 37° C. with 1 mM IPTG for 20-40 min. Cultures were harvested at 5,000×g and cell pellets were stored at −80° C. Cell pellets were resuspended in Hepes buffer (Hepes 50 mM, NaCl 150 mM pH 7.4) and passaged three times through a cooled French pressure cell at […] (Paton Scientific, Victor Harbor, South Australia). […]
The protein concentrations were determined based on the calculated extinction coefficients: SACP 6,970 cm^−1M^−1, Sppt 53,110 cm^−1M^−1. […]
Sppt activity towards SACP was determined in a 10 min phosphopantetheinylation assay at 37° C. as previously described in Copp J. N., Roberts A. A., Marahiel M. A., Neilan B. A., 2007, Characterization of PPTNs, a cyanobacterial phosphopantetheinyl transferase from Nodularia spumigena NSOR10. […]
The CoA inhibition and pH activity range for Sppt was determined using in vitro phosphopantetheinylation assays with the truncated SACP3. […]

A further data set relates to NpACP. Description: Sppt in vitro phosphopantetheinylation of non-cognate carrier proteins, ESI-MS. Type of data set: biochemical, N. punctiforme ATCC29133. To be noted: 30 min reaction. As for the experimental part:
(§1) Sppt activity towards SACP was determined in a 10 min phosphopantetheinylation assay at 37° C. as previously described in Copp J. N., Roberts A. A., Marahiel M. A., Neilan B. A., 2007, Characterization of PPTNs, a cyanobacterial phosphopantetheinyl transferase from Nodularia spumigena NSOR10. J Bacteria 189(8):3133-9. Briefly, the 100-200 μl reactions comprised of 50 mM Tris-HCl pH 7.4, 12.5 mM MgCl2, 0.5 mM CoA, 2 μM DTT, 100 μM carrier protein and 300 nM Sppt. Reactions were incubated for 10 min at 37° C., terminated by the addition of 1 ml trichloroacetic acid and precipitated overnight at −20° C. before centrifugation for 15 min at 18,000×g. Samples were dissolved in water:acetonitrile:formic acid (50:49:1). Phosphopantetheinylation was observed by an increase in mass of 340 Da as visualised by electrospray ionisation mass spectrometry (ESI-MS). […]
(§2) The ability of Sppt to activate carrier proteins from a range of secondary metabolism pathways was tested, including those from unicellular and filamentous, heterocyst-forming cyanobacteria. […] Protein concentrations were determined based on the calculated extinction coefficients: NpArCP 8,250 cm^−1M^−1, NpACP 13,940 cm^−1M^−1, MPCP 6,970 cm^−1M^−1 and TycPCP 9,530 cm^−1M^−1. Phosphopantetheinylation assays were carried out in 30 min reactions and analysed by ESI-mass spectrometry described in Example 4 above.

In a further data set the test system is NpArCP. The data set is described as above. Type of data set: biochemical, N. punctiforme ATCC29133. To be noted: 30 min reaction. As for the experimental part: as §1, §2
The next data set relates to MPCP. The data set is described as above. Type of data set: biochemical, M. aeruginosa PCC7806. To be noted: 30 min reaction. As for the experimental part: as §1, §2
Another data set relates to TycPCP. The data set is described as above. The note with it: 30 min reaction; estimated from holo- and apo-CP abundance in mass spectra. The class given is biochemical, Bacillus brevis ATCC8185. As for the experimental part:
as §1, §2

With “Synechocystis sp. PCC6803 phosphopantetheinyl transferase (Sppt) (from UniProt Q55185) (enzyme)”, in data set [1], the phosphopantetheinylation of the carrier protein (30 min assay, ESI-MS; % holo-CP) was determined as 54%. Also, the kcat of phosphopantetheinylation of SACP3 (HPLC assay, CoA varied) (min^-1 (printed min^d)) in data set [2] stood at 28.4.

B1: Synechocystis sp. PCC6803 phosphopantetheinyl transferase Sppt (slr0495, Swissprot accession number Q55185) (Synechocystis sp. PCC 6803 substr. Kazusa) (protein)
chain: MAISAEFALCLNSPVLPQPQIWLCPTDRPLIPGYQALLSSEEMARGERYQRPQDKQRFLTMRLALRILLARQLDCLPQQLQFTYGPQGKPELVDRERRSPWFNVAHSGNYGLIGLSTEGEIGVDLQIMLPKPHYLKLAKRFFAPQEVQQLESLEGEKRTKLFYQLWTAKEAFLKATGKGISGGLNQVIPDENLAKYQYLPDSGDTNHWRLSSQPLLADQGSNDNYWMAIAWCTNEVNQVESNYLPNIQPFQWPRNLHSLPSFRYLGKGEFQHTGGRY
notes: carrier-protein substrate truncated SACP3
As to B1, in data set [3], the Michaelis-Menten constant (Km) was 169.17 ± 37.48 µM, the catalytic constant (kcat) was 0.473 s⁻¹ and the specificity constant (kcat/Km) was 2800 M⁻¹ s⁻¹.

B2: Sppt: Synechocystis sp. PCC6803 phosphopantetheinyl transferase (slr0495, Swissprot Q55185) (protein)
chain: MLPQPQIWLCPTDRPLIPGYQALLSSEEMARGERYQRPQDKQRFLTMRLALRILLARQLDCLPQQLQFTYGPQGKPELVDRERRSPWFNVAHSGNYGLIGLSTEGEIGVDLQIMLPKPHYLKLAKRFFAPQEVQQLESLEGEKRTKLFYQLWTAKEAFLKATGKGISGGLNQVIPDENLAKYQYLPDSGDTNHWRLSSQPLLADQGSNDNYWMAIAWCTNEVNQVESNYLPNIQPFQWPRNLDSLP
Regarding B2, in the data set on NpACP, the “phosphopantetheinylation of NpACP” value is “not reproducibly detected”. Moreover, the “phosphopantetheinylation of NpArCP” value in the data set on NpArCP was “unable to phosphopantetheinylate”. Also, the “phosphopantetheinylation of MPCP” value in the data set with MPCP is “small mass peak corresponding to the addition of a 340 Da phosphopantetheinyl moiety”. The “TycPCP phosphopantetheinylated (% holo-CP)” value with TycPCP is listed as “approximately 54%”.

Usually Km stands for the substrate concentration at which the rate is half of its maximum. What is called kcat is the maximal rate divided by the concentration of active sites. What is called kcat/Km is the turnover number divided by the Michaelis constant.

The values are drawn from patent US9115359B2, “Methods for producing secondary metabolites” (NewSouth Innovations Pty Limited, priority 2007, dated 2015).
